# Laboratory results taken from patent US20170296640A1 (IMMATICS BIOTECHNOLOGIES, published 2017).
# Target: T1, HLA-A*02:01 (peptide-receptive MHC class I monomer after UV cleavage of the UV-sensitive ligand) (human)
# T1 construct: MHC monomers loaded by UV-ligand exchange and captured on streptavidin plates
# Test: UV ligand-exchange ELISA; exchange yield grade (+ >=10%, ++ >=20%, +++ >=50%, ++++ >=75%)
# Text: Candidate peptides for T cell based therapies according to the present invention were further tested for their MHC binding capacity (affinity). The individual peptide-MHC complexes were produced by UV-ligand exchange, where a UV-sensitive peptide is cleaved upon UV-irradiation, and exchanged with the peptide of interest as analyzed. Only peptide candidates that can effectively bind and stabilize the peptide-receptive MHC molecules prevent dissociation of the MHC complexes. To determine the yield of the exchange reaction, an ELISA was performed based on the detection of the light chain (β2m) of stabilized MHC complexes. The assay was performed as generally described in Rodenko et al. (Rodenko et al., 2006).
# 96 well MAXISorp plates (NUNC) were coated over night with 2 ug/ml streptavidin in PBS at room temperature, washed 4× and blocked for 1 h at 37° C. in 2% BSA containing blocking buffer. Refolded HLA-A*02:01/MLA-001 monomers served as standards, covering the range of 15-500 ng/ml. Peptide-MHC monomers of the UV-exchange reaction were diluted 100 fold in blocking buffer. Samples were incubated for 1 h at 37° C., washed four times, incubated with 2 ug/ml HRP conjugated anti-β2m for 1 h at 37° C., washed again and detected with TMB solution that is stopped with […]. Absorption was measured at 450 nm. Candidate peptides that show a high exchange yield (preferably higher than 50%, most preferred higher than 75%) are generally preferred for a generation and production of antibodies or fragments thereof, and/or T cell receptors or fragments thereof, as they show sufficient avidity to the MHC molecules and prevent dissociation of the MHC complexes.
row,peptide exchange yield [%],Binder
1,50 to 75,FLLDTISGL [FLLDTISGL (SEQ ID NO: 209)]
2,20 to 50,YINEDEYEV [YINEDEYEV (SEQ ID NO: 213)]
3,20 to 50,TLIAAILYL [TLIAAILYL (SEQ ID NO: 16)]
4,50 to 75,LLSEETPSA [LLSEETPSA (SEQ ID NO: 2)]
5,50 to 75,VMESILLRL [VMESILLRL (SEQ ID NO: 175)]
6,20 to 50,GMAAEVPKV [GMAAEVPKV (SEQ ID NO: 192)]
7,50 to 75,ALIPDLNQI [ALIPDLNQI (SEQ ID NO: 195)]
8,50 to 75,FLIGQGAHV [FLIGQGAHV (SEQ ID NO: 212)]
9,50 to 75,YLNISQVNV [YLNISQVNV (SEQ ID NO: 201)]
10,20 to 50,SAVSGQWEV [SAVSGQWEV (SEQ ID NO: 206)]
11,50 to 75,SLSHLVPAL [SLSHLVPAL (SEQ ID NO: 189)]
12,50 to 75,FIDDLFAFV [FIDDLFAFV (SEQ ID NO: 211)]
13,50 to 75,FIAQLNNVEL [FIAQLNNVEL (SEQ ID NO: 185)]
14,20 to 50,GLEDEMYEV [GLEDEMYEV (SEQ ID NO: 188)]
15,50 to 75,FLAVSLPLL [FLAVSLPLL (SEQ ID NO: 208)]
16,50 to 75,SLNSTTWKV [SLNSTTWKV (SEQ ID NO: 199)]
17,50 to 75,KLMTSLVKV [KLMTSLVKV (SEQ ID NO: 155)]
18,50 to 75,YLHIYESQL [YLHIYESQL (SEQ ID NO: 176)]
19,50 to 75,ALKKHLTSV [ALKKHLTSV (SEQ ID NO: 22)]
20,50 to 75,YLYEAEEATTL [YLYEAEEATTL (SEQ ID NO: 177)]
21,≥ 75,VLVEITDVDFAA [VLVEITDVDFAA (SEQ ID NO: 174)]
22,≥ 75,YLLDFEDRL [YLLDFEDRL (SEQ ID NO: 200)]

row,peptide exchange yield [%],Binder
1,≥ 75,TLQDSLEFI [TLQDSLEFI (SEQ ID NO: 172)]
2,50 to 75,VLFETVLTI [VLFETVLTI (SEQ ID NO: 183)]
3,≥ 75,SIFDAVLKGV [SIFDAVLKGV (SEQ ID NO: 163)]
4,50 to 75,KLLEEIEFL [KLLEEIEFL (SEQ ID NO: 165)]
5,20 to 50,QLFEEEIEL [QLFEEEIEL (SEQ ID NO: 215)]
6,50 to 75,NLMLELETV [NLMLELETV (SEQ ID NO: 161)]
7,50 to 75,AVLGTSWQL [AVLGTSWQL (SEQ ID NO: 184)]
8,50 to 75,KVLEFLAKV [KVLEFLAKV (SEQ ID NO: 157)]
9,20 to 50,FLDVSRDFV [FLDVSRDFV (SEQ ID NO: 186)]
10,≥ 75,TLLDVISAL [TLLDVISAL (SEQ ID NO: 171)]
11,50 to 75,SLFDGAVISTV [SLFDGAVISTV (SEQ ID NO: 164)]
12,50 to 75,GLSDISAQV [GLSDISAQV (SEQ ID NO: 191)]
13,50 to 75,ALFKEAYSL [ALFKEAYSL (SEQ ID NO: 21)]
14,50 to 75,LLPPPSPAA [LLPPPSPAA (SEQ ID NO: 160)]
15,50 to 75,FLFDGSMSL [FLFDGSMSL (SEQ ID NO: 214)]
16,50 to 75,GLIELVDQL [GLIELVDQL (SEQ ID NO: 190)]
17,20 to 50,RLCDIVVNV [RLCDIVVNV (SEQ ID NO: 204)]
18,50 to 75,KMLEDDLKL [KMLEDDLKL (SEQ ID NO: 156)]
19,50 to 75,GILQLVESV [GILQLVESV (SEQ ID NO: 180)]
20,50 to 75,YVLQGEFFL [YVLQGEFFL (SEQ ID NO: 178)]
21,50 to 75,GLLSAVSSV [GLLSAVSSV (SEQ ID NO: 198)]
22,50 to 75,SSLEENLLHQV [SSLEENLLHQV (SEQ ID NO: 169)]

row,peptide exchange yield [%],Binder
1,50 to 75,FLAEQFEFL [FLAEQFEFL (SEQ ID NO: 210)]
2,50 to 75,TLFYESPHL [TLFYESPHL (SEQ ID NO: 205)]
3,≥ 75,GLVGLLEQA [GLVGLLEQA (SEQ ID NO: 207)]
4,50 to 75,LLLSDSGFYL [LLLSDSGFYL (SEQ ID NO: 159)]
5,50 to 75,SLFSITKSV [SLFSITKSV (SEQ ID NO: 167)]
6,≥ 75,VILDSVASV [VILDSVASV (SEQ ID NO: 173)]
7,20 to 50,SLAPFDREPFTL [SLAPFDREPFTL (SEQ ID NO: 194)]
8,20 to 50,FLNSFVFKM [FLNSFVFKM (SEQ ID NO: 187)]
9,50 to 75,VIIPLLSSV [VIIPLLSSV (SEQ ID NO: 17)]
10,50 to 75,FVDTNLYFL [FVDTNLYFL (SEQ ID NO: 179)]
11,≥ 75,RLADLKVSI [RLADLKVSI (SEQ ID NO: 162)]
12,20 to 50,SLADSMPSL [SLADSMPSL (SEQ ID NO: 193)]
13,20 to 50,YLLTDNVVKL [YLLTDNVVKL (SEQ ID NO: 197)]
14,50 to 75,SLLSPLLSV [SLLSPLLSV (SEQ ID NO: 168)]
15,50 to 75,KLTDQPPLV [KLTDQPPLV (SEQ ID NO: 18)]
16,50 to 75,KVQDVLHQV [KVQDVLHQV (SEQ ID NO: 158)]
17,50 to 75,LLFDQNDKV [LLFDQNDKV (SEQ ID NO: 181)]
18,20 to 50,KVVSNLPAI [KVVSNLPAI (SEQ ID NO: 216)]
19,20 to 50,ALAAGGYDV [ALAAGGYDV (SEQ ID NO: 202)]
20,≥ 75,LLPPPPPVA [LLPPPPPVA (SEQ ID NO: 182)]
21,50 to 75,ILDTIFHKV [ILDTIFHKV (SEQ ID NO: 203)]
22,≥ 75,VLEAILPLV [VLEAILPLV (SEQ ID NO: 19)]
